Here are results for two proteins from publication PMC2909130 (Biochemistry, 2010).

The data set concerns the molecule itself. Put plainly: crystal structure.

B1: ArsD109/C12A/C13A/C39S (domain or fragment, Escherichia coli (plasmid R773), UniProt P46003 1-109, looked up)
chain: MKTLMVFDPAMAASTGVCGTDVDQALVDFSTDVQWLKQSGVQIERFNLAQQPMSFVQNEKVKAFIEASGAEGLPLLLLDGETVMAGRYPKRAELARWFGIPLDKVGLAP
As to B1, the binding result is reported as “binds”.

B2: ArsD109 (ArsD arsenic metallochaperone of plasmid R773, residues 1-109, wild type) (domain or fragment, Escherichia coli (plasmid R773), UniProt P46003 1-109, looked up)
chain: MKTLMVFDPAMCCSTGVCGTDVDQALVDFSTDVQWLKQCGVQIERFNLAQQPMSFVQNEKVKAFIEASGAEGLPLLLLDGETVMAGRYPKRAELARWFGIPLDKVGLAP
As to B2, the binding result was “binds”.
